Experimental data taken from patent publication US5550216A, “Gelatinase A inhibitor, and analytical reagent thereof for the determination of gelatinase A” (Oriental Yeast Co., Ltd., priority 1993, dated 1996).

What was measured:
gelatinase A = biological target: T1, gelatinase A (Homo sapiens, UniProt P08253); assay: Hydrolysis of synthetic peptide βAP10-20 by activated gelatinase A (reverse phase HPLC), enzyme kinetic analysis; type: biochemical; settings: hydrolysis of β-AP10-20 by APMA/stromelysin activated gelatinase A; from slope of Dixon plot (1/v vs (I))
T1 construct: made in house; host or cells: Natural (endogenous) secretion of the T98G human glioblastoma cell line
T1 sequence (P08253 110-660): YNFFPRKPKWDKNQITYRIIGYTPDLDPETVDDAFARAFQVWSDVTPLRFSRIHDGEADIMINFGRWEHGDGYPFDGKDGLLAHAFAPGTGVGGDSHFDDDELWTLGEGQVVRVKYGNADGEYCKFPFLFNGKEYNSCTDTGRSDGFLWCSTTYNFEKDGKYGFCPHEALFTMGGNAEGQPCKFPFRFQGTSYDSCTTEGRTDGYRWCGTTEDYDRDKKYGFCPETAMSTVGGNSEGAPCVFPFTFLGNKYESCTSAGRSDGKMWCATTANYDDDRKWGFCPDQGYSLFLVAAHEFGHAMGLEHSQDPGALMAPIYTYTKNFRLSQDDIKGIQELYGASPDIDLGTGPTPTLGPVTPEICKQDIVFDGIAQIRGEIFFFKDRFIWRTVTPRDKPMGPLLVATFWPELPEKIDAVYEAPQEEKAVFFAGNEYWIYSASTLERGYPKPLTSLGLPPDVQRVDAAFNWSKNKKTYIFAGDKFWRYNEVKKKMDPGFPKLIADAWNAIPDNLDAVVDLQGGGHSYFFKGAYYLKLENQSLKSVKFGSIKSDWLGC
Protocol: (§1) FIGS. 5 (A) and (B) show the degradation of synthetic peptide βAP10-20by gelatinase A. By heparin affinity chromatography according to the method by (Kelkenbrock), TIMP-2-free progelatinase A was isolated from TIMP-2 binding form. Proenzyme (1 μg) was activated by incubating for 1 hour at 37° C. in 20 mMTris-HCl (pH 7.5) containing 10 mMCa^2+ with 1 mMAPMA and 0.25 μg of rat stromelysin. Then, the activated enzyme was incubated for 6 hours at 37° C. in the absence or presence of 5 μg of 100-kDa APP in 50 μl of Tris-HCl/Ca^2+ buffer with 20 nmol (28 μg) of synthetic peptide β-AP10-20 (cf. FIG. 2D). Then the mixture was admixed with 0.5 ml of 0.05% trifluoroacetic acid (TFA), and loaded to Cosmosil 5C18 reverse phase HPLC column (4.6×150 mm) (Nacalai Tesque, Kyoto, Japan). The column was eluted at the flow rate of 0.5 ml/min with 15 ml of 0 to 80% linear gradient acetonitrile in 0.05% TFA. The amino acid sequence of the […] was analyzed by a protein sequencer. As previously reported, rat stromelysin was purified with the proenzyme form and activated by APMA. Under the condition described above, stromelysin hardly hydrolyzed βAP10-20.
(§2) FIG. 5(A) and (B) represent enzyme kinetic analysis of the inhibition of gelatinase A activity by 100-bDa APP. […] The maximum concentration of 100-kDa APP ([…]) corresponded to about 910 nM. […]

human progelatinase A = biological target: T2, human progelatinase A (Homo sapiens, UniProt P08253); assay: Reverse zymography of gelatinase A inhibitor on gelatine-containing SDS polyacrylamide gel; type: biochemical; settings: 0.2 μg/lane protein; gel incubated with 1 μg/ml human progelatinase A and 1 mM APMA
T2 construct: obtained from the culture supernatant of T98G human glioblastoma cell line; made in house; host or cells: Natural (endogenous) secretion of the T98G human glioblastoma cell line, purified from the culture supernatant
T2 sequence (P08253 110-660): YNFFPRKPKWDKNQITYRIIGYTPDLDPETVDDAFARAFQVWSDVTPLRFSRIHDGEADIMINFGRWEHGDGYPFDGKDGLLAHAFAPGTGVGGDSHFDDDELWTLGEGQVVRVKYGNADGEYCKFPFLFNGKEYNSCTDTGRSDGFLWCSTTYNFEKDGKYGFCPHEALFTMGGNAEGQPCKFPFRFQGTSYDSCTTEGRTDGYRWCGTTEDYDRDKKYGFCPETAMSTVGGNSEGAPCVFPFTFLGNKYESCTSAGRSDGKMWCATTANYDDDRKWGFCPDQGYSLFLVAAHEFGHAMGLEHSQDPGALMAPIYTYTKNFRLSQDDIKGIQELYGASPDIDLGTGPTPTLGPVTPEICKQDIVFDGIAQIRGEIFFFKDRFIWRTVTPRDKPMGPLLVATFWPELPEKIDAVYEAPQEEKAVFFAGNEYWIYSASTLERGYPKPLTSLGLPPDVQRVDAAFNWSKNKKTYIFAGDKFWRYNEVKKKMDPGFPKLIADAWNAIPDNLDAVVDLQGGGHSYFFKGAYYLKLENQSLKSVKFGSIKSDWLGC
Description: The large triangle arrow represents 100-kDa inhibitor. Three small triangle arrows represent TIMP (28 kDa), unidentified 22-kDa inhibitor and TIMP-2 (20 kDa). The bands of negative image (white lines) indicate gelatine degradation activity secreted by tumor cells. b represents the results of non-reductive SDS-PAGE of purified 100-kDa inhibitor, while c represents the results of SDS-PAGE (lanes 1 to 3) and the reverse zymograms of 100-kDa inhibitor (lane 1, 2, 4 and 5) and human TIMP (lane 3 and 6). Equal amount (0.2 μg/lane) of the protein was analyzed under reductive condition (lanes 2 and 5) and non-reductive condition (lane 1, 3, 4 and 6). […] 100-kDa inhibitor (200 μg) was incubated with 0.3 μg of endoproteinase Lys-C (Sigma, St. Louis, Mo.) for 60 minutes at 30° C. in 60 μl of 50 mM Tris-HCl (pH 7.5) containing 2M urea and 1M NaCl, and a part of digestion products were subjected to electrophoresis. As a result, a peptide from 439V through 687 k of the amino acid sequence in FIG. 1 was obtained.
The supernatant of EJ-1 cell culture which had been incubated for 2 days in serum-free RPMI1640 medium was used for the preparation. The reverse zympgraphy of gelatinase A inhibitor was conducted on polyacrylamide gel containing 0.1% SDS and 1 mg/ml of gelatine by a modified Herroh's method. […]

[1] = substrate: CC(C)C[C@H](NC(=O)[C@H](CCCCN)NC(=O)[C@H](CCC(N)=O)NC(=O)[C@H](Cc1c[nH]cn1)NC(=O)[C@H](Cc1c[nH]cn1)NC(=O)[C@@H](NC(=O)[C@H](CCC(=O)O)NC(=O)[C@@H](N)Cc1ccc(O)cc1)C(C)C)C(=O)N[C@H](C(=O)N[C@@H](Cc1ccccc1)C(=O)N[C@@H](Cc1ccccc1)C(=O)O)C(C)C; assay: Hydrolysis of synthetic peptide βAP10-20 by activated gelatinase A (reverse phase HPLC), enzyme kinetic analysis; type: biochemical, human; settings: other: hydrolysis of βAP10-20 by activated gelatinase A; Lineweaver-Burk plots, 30 to 400 μM substrate; pH 7.5
Protocol: as §1, §2

Row | Ki (gelatinase A) | Molecule | inhibitor bands on the reverse zymograms (human progelatinase A) | Km [1] | Vmax [1]
1 | 40 nM | 100-kDa APP: secretory form of APP (gelatinase A inhibition protein), 100k, from EJ-1 culture fluid; 18L through 687K of APP770 | markedly stained gelatine bands (inhibitor bands) | – | –
2 | – | human TIMP: known gelatinase inhibitor (28 kDa) used as comparison in reverse zymography [reference compound] | markedly stained gelatine bands (inhibitor bands) | – | –
3 | – | gelatinase A (Homo sapiens) (protein, made in house; host or cells: Natural (endogenous) secretion of the T98G human glioblastoma cell line) YNFFPRKPKWDKNQITYRIIGYTPDLDPETVDDAFARAFQVWSDVTPLRFSRIHDGEADIMINFGRWEHGDGYPFDGKDGLLAHAFAPGTGVGGDSHFDDDELWTLGEGQVVRVKYGNADGEYCKFPFLFNGKEYNSCTDTGRSDGFLWCSTTYNFEKDGKYGFCPHEALFTMGGNAEGQPCKFPFRFQGTSYDSCTTEGRTDGYRWCGTTEDYDRDKKYGFCPETAMSTVGGNSEGAPCVFPFTFLGNKYESCTSAGRSDGKMWCATTANYDDDRKWGFCPDQGYSLFLVAAHEFGHAMGLEHSQDPGALMAPIYTYTKNFRLSQDDIKGIQELYGASPDIDLGTGPTPTLGPVTPEICKQDIVFDGIAQIRGEIFFFKDRFIWRTVTPRDKPMGPLLVATFWPELPEKIDAVYEAPQEEKAVFFAGNEYWIYSASTLERGYPKPLTSLGLPPDVQRVDAAFNWSKNKKTYIFAGDKFWRYNEVKKKMDPGFPKLIADAWNAIPDNLDAVVDLQGGGHSYFFKGAYYLKLENQSLKSVKFGSIKSDWLGC | – | 130 µM | 3.9 nmol/h
